Assay results as given in article PMC7249735.

Target: Maltose binding protein (MBP) (UniProt P0AEX9 27-396)
Assay: ELASA; 500 nM aptamer; PBS (137 mM NaCl, 2.7 mM KCl, 10 mM Na2HPO4, 1.8 mM KH2PO4, pH 7.4); ELASA 30 min at 4 C after 3% BSA block; sandwich capture in PBS, temperature not stated

B1: A-aptamer-ELASA (modified B11) (ssDNA)
DNA: TTCTTTTATTAGTTGATTTTTTTGATTTTGGCAGCTACTGCTTTGGGGGTGCTGAGGCGAAGGACGCAGATGAAGTCTC
modifications: 3' biotin
binding result: no binding
